According to PMC8529701, “Biofoundry-assisted expression and characterization of plant proteins”:

T1: AtTGA2 (6xHis-HRV3C-AtTGA2-HiBiT, plasmid pEPQDKN0742) (UniProt P43273 1-330)
T1 sequence: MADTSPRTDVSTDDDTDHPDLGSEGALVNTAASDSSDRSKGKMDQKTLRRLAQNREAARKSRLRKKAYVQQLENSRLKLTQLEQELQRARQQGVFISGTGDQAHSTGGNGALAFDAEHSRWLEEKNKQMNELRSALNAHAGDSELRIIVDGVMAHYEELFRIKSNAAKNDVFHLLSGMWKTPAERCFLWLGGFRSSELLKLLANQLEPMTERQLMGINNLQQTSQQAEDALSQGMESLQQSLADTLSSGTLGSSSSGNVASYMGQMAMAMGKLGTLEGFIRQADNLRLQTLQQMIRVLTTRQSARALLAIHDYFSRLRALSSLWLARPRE

B1: TGA TFBS probe (dsDNA)
DNA 1: GACCCCTATTGCAGCTATTTCACCTGACGTAAGGGATGACGCACAGGCCATCACGCAGTA
DNA 2: TACTGCGTGATGGCCTGTGCGTCATCCCTTACGTCAGGTGAAATAGCTGCAATAGGGGTC
B2: Random control probe (dsDNA)
DNA 1: GACCCCTATTGCAGCTATTTCACACATACCAACGCTTAGCGCAATGGCCATCACGCAGTA
DNA 2: TACTGCGTGATGGCCATTGCGCTAAGCGTTGGTATGTGTGAAATAGCTGCAATAGGGGTC

Target: T1, AtTGA2 (6xHis-HRV3C-AtTGA2-HiBiT, …)
Assay: EMSA; 500 ng poly(dI-dC); 20 mM Tris-HCl pH 8.0, 50 mM KCl, 2 mM DTT, 1 mM EDTA, 500 ng poly(dI-dC), 5% glycerol, 0.05% IGEPAL CA630, 0.1 mg/ml BSA; about 500 pmol protein, 5.5 pmol probe; room temperature 1 h; 6% TBE gel
Settings: protein: ivt; tags: N-terminal NET-6xHis-HRV3C (as described for plasmid); C-terminal HiBiT; label: Alexa-488 at 5' end of the complementary strand (Klenow extension of labelled primer S3); blunt

Binder	binding result
B1	binds
B2	no binding
